Data reported in the nanobody polyreactivity screen of Harvey et al. (2022).

Test: yeast display, Sf9 membrane polyspecificity reagent, FACS + sequencing; frameworks hold sequencing errors
Summary of the method: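 Galactose-induced (36–48 hours) yeast carrying a synthetic nanobody display library were exposed to 10% biotinylated, detergent-solubilized Sf9 membrane reagent at 4 °C for 1 hour. FACS followed streptavidin microbead enrichment, using low and high (top ~1%) gates for expression (anti-HA) and reagent binding (streptavidin). Colony PCR, MiSeq 2 × 250 sequencing and CDR-length filtering followed. Labels for polyreactivity reflect the gate of origin.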

| Sequence | polyreactivity (PSR sort gate) |
| --- | --- |
| QVQLVESGGGLVQAGGSLRLSCAASGSTFYPYAMGWYRQAPGKERELVAAISSGGSTYYADSVKGRFTISRDNAKNTVYLQMNSLKPQDTAVYYCAADFYYAYYWGQGTQVTVSS | low polyreactivity |
| QVQLVESGGGLVQAGGSLRLSCAASGSTFYPYAMGWYRQAPGKERELVAAISYSGGSTYYADSVKGRFTISRDNAKNTVYLQMNSLKPEDSAVYYCAAYYRRQFTSYGNYYYWGQGTQVTLSS | high polyreactivity |
| QVQLVESGGGLVQAGGSLRLSCAASGSTFYPYAMGWYRQAPGKERELVAAITSGGRTYYADSVKGRFTISRDNAKNTVYLQMNSLKPEDTAVYYCAALQYRRLRDYRHDYWGQGTQVTVSS | high polyreactivity |
| QVQLVESGGGLVQAGGSLRLSCAASGSTFYPYAMGWYRQAPGKERELVAAITSSGGSTYYADSVKGRFTISRDNAKNTVYLQMNSLKPEDSAVYYCAKLHVPPVHYDYWGQGTQVTVSS | low polyreactivity |
| QVQLVESGGGLVQAGGSLRLSCAASGSTFYPYAMGWYRQAPGKERELVADITNSGSTYYADSVKGRFTISRDNAKNTVYLQMNSLKPEDTAVYYCAARVYSVADYYYWGQGTQVTVSS | low polyreactivity |
| QVQLVESGGGLVQAGGSLRLSCAASGSTFYPYAMGWYRQAPGKERELVASITTDDGSTYYADSVKGRFTISRDNAKNTVYLQMNSLKPEDTAVYYCAARFRGFAVDWYPFRQGDYWGQGTQVTVSS | low polyreactivity |
| QVQLVESGGGLVQAGGSLRLSCAASGSTFYPYAMGWYRQAPGKERELVAVISWRGGSTYYADSVKGRFTISRDNAKNTVYLQMNSLKPEDTAVYYCGASGYRGYEYWGQGTQVTVSS | high polyreactivity |
| QVQLVESGGGLVQAGGSLRLSCAASGSTFYPYFMGWYRQAPAKEREFVAAISKSGGSTYYADSVKGRFTISRDNAKNTVYLQMNSLKPEDTAVYYCNKKVGSYYRSYYYWGQGTQVTVSS | high polyreactivity |
| QVQLVESGGGLVQAGGSLRLSCAASGSTFYQYDMGWSRQAPGKERELVATISWSATSTYYADSVKGRFTISRDNAKNTVYLQMNSLKPEDTAVYYCNADLGDVYGWLHYDYWGQGTQVTVSS | low polyreactivity |
| QVQLVESGGGLVQAGGSLRLSCAASGSTFYRNAMGWSRPAPGKERELVAAINKSGGRTYYADSVKGRFTISRDNAKNTVYLQMNSLKPEDTAVYYCAAGVSVDLDYWGQGTQVTVSS | high polyreactivity |
| QVQLVESGGGLVQAGGSLRLSCAASGSTFYRNAMGWYRQAPGKERELVAAISGSGARTYYADSVKGRFTISRDNAKNTVYLQMNSLKPEDTAVYYCNAKRYFRNHFRTGGMYYWGQGTQVTVSS | high polyreactivity |
| QVQLVESGGGLVQAGGSLRLSCAASGSTFYRNAMGWYRQAPGKERELVAAISSTGGSTYYADSVKGRFTISRDNAKNTVYLQMNSLKAEDTAVYYCAVDPGLTKGFGYWGQGTHVTVSS | low polyreactivity |
| QVQLVESGGGLVQAGGSLRLSCAASGSTFYRNAMGWYRQAPGKERELVAAITWSGGTTYYADSVKGRFTISRDNAKNTVYLQMNSLKPEDTAVYYCAARFILAPRRGYNAYKYYYWGQGTQVTVSS | high polyreactivity |
| QVQLVESGGGLVQAGGSLRLSCAASGSTFYRNTMGWYRQAPGKERELVAAIRRSGSSTYYADSVKGRFTISRDNAKNTVYLQMNSLKPDDTAVYYCAKEGLSYRYYYCGQGTQVTVSS | high polyreactivity |
| QVQLVESGGGLVQAGGSLRLSCAASGSTFYRYAMGCYRQAPGKERELVAAISSRGGSTYYADSVKGRFTISRDNAKNTVYLQMNSLKPEDTAVYYCAAQVYGTAGYYYWGQGTQVTVSS | high polyreactivity |
| QVQLVESGGGLVQAGGSLRLSCAASGSTFYRYAMGWYRQAPGKEREFVAAISRSGGSTYYADSVKGRFTISRDNAKNTVYLQMNSLKPEDTAVYYCNKYYWYPYGRAHYYGYWGQGTQVTVSS | high polyreactivity |
| QVQLVESGGGLVQAGGSLRLSCAASGSTFYRYAMGWYRQAPGKERELVAAISRNGGSTYYSDSVKGRFTISRDNAKNTVYLQMNSLKPEDTAVYYCAAVWPYGSRVAPMDYWGQGTQVTVSS | high polyreactivity |
| QVQLVESGGGLVQAGGSLRLSCAASGSTFYRYAMGWYRQAPGKERELVAAISSDGTTYYADSVKGRFTISRDNAKNTVYLQMISLKPEDTAVYDCAAEGIRRSQRFNYWGQGTQVTVSS | high polyreactivity |
| QVQLVESGGGLVQAGGSLRLSCAASGSTFYRYAMGWYRQAPGKERELVAAISYRGGSTYYADSVKGRFTISRDNAKNTVYLQMNSLKPEDTAVYYCNKRSTRRYDYWGQGTQVTVSS | high polyreactivity |
| QVQLVESGGGLVQAGGSLRLSCAASGSTFYRYAMGWYRQAPGKERELVAVITSGGSTNYADSVKGRFTISRDNAKNTVYLQMNSLKPEDTAVYYCAKEDGYSQLKTTFDEAGYGSWGQGTQVTVSS | low polyreactivity |
| QVQLVESGGGLVQAGGSLRLSCAASGSTFYRYTMGWYRQAPGKERELVAAITGSGDSTYYADSVKGRFTISRDNAKNTVYLQMNSLKPEDTAVYYCAAANSFYYIATGEYDYWGQGTQVNVSS | high polyreactivity |
| QVQLVESGGGLVQAGGSLRLSCAASGSTFYSNAMGWYRQAPGKERELVAAINYSGGGTYYADSVKGRFTISRDNAKNTVYLQMNSLKPEDTAVYYCAADGSYVHWEYGYWGQGTQVTVSS | low polyreactivity |

| Sequence | polyreactivity (PSR sort gate) |
| --- | --- |
| QVQLVESGGGLVQAGGSLRLSCAASGSTFYSNAMGWYRQAPGKERELVAAISRRGSSTYYADSVKGRFTISRDNAKNTVYLQMNSLKPEDTAVYYCNAVGTGGYSSEYGYWGQGTQVTVSS | high polyreactivity |
| QVQLVESGGGLVQAGGSLRLSCAASGSTFYSNAMGWYRQAPGKERELVAAITDGDRTNYADSVKGRFTISRDNAKNTVYLQMNSLKPEDTAVYYCAADYAVYLGVSPDYGYWGQGTQVTVSS | low polyreactivity |
| QVQLVESGGGLVQAGGSLRLSCAASGSTFYSYAMGWYRQAHGQERELVAAISYSGGSTYYADSVKGRFTISRDNAKNTVYLQMNSLKPADTAVYYCNARAVYPAGYAYDYWGQGTQVTVSS | high polyreactivity |
| QVQLVESGGGLVQAGGSLRLSCAASGSTFYSYAMGWYRQAPGKEREFVAVISWSGGRTRYADSVKGRFTISRDNAKNTVYLQMNSLKPEDTAVYYCNARKWGYSPHRKGDRHFEYWGQGTQVTVSS | low polyreactivity |
| QVQLVESGGGLVQAGGSLRLSCAASGSTFYSYAMGWYRQAPGKERELVADITDSGGSTYYADSVKGRFTISRDNAKNTVYLQMNSLKPEDTALFYCNAAYYIWYNKVSSTYGIHGMDYWGQGTQVTVSS | high polyreactivity |
| QVQLVESGGGLVQAGGSLRLSCAASGSTFYSYSMGWNRQAPGKERELVAAITKSGGSTYYADSVKGRFTISRDNAKNTVYLQMNSLKPEDTAVYYCAARQGVRMYWGQVTQVTVSS | high polyreactivity |
| QVQLVESGGGLVQAGGSLRLSCAASGSTFYTNAMGWSRQAPGKERELVASIDRGGGSTYYAESVKGRFTISRDNAKNTVYLQMNSLKPEDTAVYYCAASFDGRYWGYYYWGQGTKVTVSS | low polyreactivity |
| QVQLVESGGGLVQAGGSLRLSCAASGSTFYTNAMGWSRQAPGTERELVAAISGSGGSTYYADSVKGRFTISRDNAKNTVYVQMNSLKPEDTAVYYCAARSRYYYTRFDYWGQGTQVTVSS | low polyreactivity |
| QVQLVESGGGLVQAGGSLRLSCAASGSTFYTNAMGWYIQAPGKERELVAAISRGGITYYADSVKGRFTISRDNAKNTVYLQMNSLKPEDTAVYYCNTQIVTEYDYWGQDTQVTVSS | low polyreactivity |
| QVQLVESGGGLVQAGGSLRLSCAASGSTFYTNAMGWYRPAPGKERELVAAISASVGSTYYADSVKGRFTISRDNAKNTVYLQMNSLKPEDTAVYYCAADVWASRRYDYWGQGTQVTVSS | low polyreactivity |
| QVQLVESGGGLVQAGGSLRLSCAASGSTFYTNAMGWYRQAPGKERELVAAISASVGSTYYADSVKGRFTISRDNAKNTVYLQMNSLKPEDTAVYNCAADVWASRRYDYWGQGTQVTLSS | low polyreactivity |
| QVQLVESGGGLVQAGGSLRLSCAASGSTFYTNAMGWYRQAPGKERELVASISSGGRTYYADSVKGRFTISRDNAKNTVYLQMNSLKPEDTAVYYCAKRAVLARGDYWGQGTQVTVSS | low polyreactivity |
| QVQLVESGGGLVQAGGSLRLSCAASGSTFYTNAMGWYRQAPGKERELVASITDGGDSTHYADSVKGRFTISRDNAKNTVYLQMNSLKPEDTAVYYCAVDYQYFQEYDSWGQGTQVTVSS | low polyreactivity |
| QVQLVESGGGLVQAGGSLRLSCAASGSTFYTNAMGWYRQAPGKERELVAVITSSGVRTYYADSVKGRFTISRDNAKKTVYFQMNSLKPEDTAVYYCAAEARVGDHFQILDYWGQGTQVTVSS | high polyreactivity |
| QVQLVESGGGLVQAGGSLRLSCAASGSTFYTNAMGWYRQAPGQERELVAAISASVGSTYYADSVKGRFTISRDYAKNSVYLQMNSLKPEDTAVYYCAADVWASRRYDYWGQGTQVTVSS | low polyreactivity |
| QVQLVESGGGLVQAGGSLRLSCAASGSTFYTYAMGWYRKAPGKERELDAAISWSGGSTYYADSVKGRFTISRDNAKNTVYLQMNSLKPEDTAVYYCAADRPYAGRYWKGYHSALYDYWGQGTQVTVSS | low polyreactivity |
| QVQLVESGGGLVQAGGSLRLSCAASGSTFYTYAMGWYRQAPGKERELVAAISNRGGSTRYADSVKGRFTISRDNAKNTVYLQMNSLKPEDTAVYYCAARVTQTGYYWGQGTQVTVSS | high polyreactivity |
| QVQLVESGGGLVQAGGSLRLSCAASGSTFYTYAMGWYRQAPGKERELVAAISWSGGSTYYADSVKGRFTISRDIAKNTVYLQMNSLKPEDTAVYYCAKKQVTTDVSSETFVLEMDYWGQGTQVTVSS | low polyreactivity |
| QVQLVESGGGLVQAGGSLRLSCAASGSTFYTYAMGWYRQATGKERELVAAISWSGGSTYYADSVKGRFTISRDNAKNTVYLQMNSLKPEDPAVYYCAADRPYAGRYWKGYHSALYDYWGQGSQVTVSS | low polyreactivity |
| QVQLVESGGGLVQAGGSLRLSCAASGSTFYTYTMGWYRQAPGKERELVAAISTRGGSTYYADSVKGRFTISRDNAKNTVYLQMNCLKPEDTAVYYCAAVYRRGSGYDYWGQGNQVTVSS | high polyreactivity |
| QVQLVESGGGLVQAGGSLRLSCAASGSTFYVNAMGWYRQAPGKERELVAAISSGGSTYYADSVKGRFTISRDNAKNTVYLQMNSLKPEDTAVYYCAAASPWGSDYDYWGQGTQVTVSS | low polyreactivity |
